Laboratory results as given in doi:10.1101/2021.02.07.430161 (bioRxiv, 2021).
Like-named read-outs stand apart in the source and are kept apart here. One block for each binder: values may come before it.

Experiments:
[1] = molecular target: PABPC1 full-length (His);Paip2 (Paip2a) full-length (human?;human?, UniProt P11940;Q9BPZ3 1-636;1-127, |); experiment: EMSA
PABPC1 RRM23 (98-293) = PABPC1 RRM23 (98-293) (UniProt P11940-1 98-293); experiment: native gel or EMSA
PABPC1 (1-372) = PABPC1 (1-372) (UniProt P11940-1 1-372); experiment: native gel or EMSA
[2] = molecular target: T1, Poly(A) binding protein cytoplasmic 1 (PABPC1), full-length recombinant, His-tagged (UniProt P11940-1 1-636); experiment: SEC-MALS
[3] = molecular target: T1, Poly(A) binding protein cytoplasmic 1 …; experiment: SEC-MALS; remark: listed apart in the source

T1 sequence (P11940 whole entry): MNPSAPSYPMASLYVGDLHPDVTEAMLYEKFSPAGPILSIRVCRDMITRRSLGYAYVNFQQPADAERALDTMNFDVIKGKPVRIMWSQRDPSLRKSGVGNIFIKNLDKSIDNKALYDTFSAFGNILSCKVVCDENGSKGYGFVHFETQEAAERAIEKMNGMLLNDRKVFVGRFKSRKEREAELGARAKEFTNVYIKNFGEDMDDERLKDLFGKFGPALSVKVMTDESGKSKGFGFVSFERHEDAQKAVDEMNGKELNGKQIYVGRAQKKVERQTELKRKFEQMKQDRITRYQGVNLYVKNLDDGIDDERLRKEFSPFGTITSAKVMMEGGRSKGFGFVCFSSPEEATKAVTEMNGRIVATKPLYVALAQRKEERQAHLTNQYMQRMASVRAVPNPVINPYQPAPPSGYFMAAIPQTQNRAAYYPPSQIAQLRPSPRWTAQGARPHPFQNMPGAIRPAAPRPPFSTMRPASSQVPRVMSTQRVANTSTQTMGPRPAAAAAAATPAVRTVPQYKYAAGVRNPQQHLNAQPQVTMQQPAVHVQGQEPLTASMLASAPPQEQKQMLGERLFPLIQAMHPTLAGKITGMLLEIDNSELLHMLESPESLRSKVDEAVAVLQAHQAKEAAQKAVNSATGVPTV
Chain of PABPC1 (1-372) (P11940 1-372): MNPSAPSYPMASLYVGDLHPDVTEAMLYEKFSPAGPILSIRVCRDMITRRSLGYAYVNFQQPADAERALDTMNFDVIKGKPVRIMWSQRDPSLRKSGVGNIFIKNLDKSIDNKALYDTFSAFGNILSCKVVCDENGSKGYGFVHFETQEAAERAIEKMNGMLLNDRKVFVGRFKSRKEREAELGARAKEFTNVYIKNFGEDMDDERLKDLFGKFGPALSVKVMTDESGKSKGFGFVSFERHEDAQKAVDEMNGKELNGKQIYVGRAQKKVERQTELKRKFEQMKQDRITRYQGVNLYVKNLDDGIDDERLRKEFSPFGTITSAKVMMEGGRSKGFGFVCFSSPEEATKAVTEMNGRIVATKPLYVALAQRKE
Chain of PABPC1 full-length (His);Paip2 (Paip2a) full-length (P11940 whole entry, one chain of several): as the sequence (P11940 whole entry) above
Chain of PABPC1 RRM23 (98-293) (P11940 98-293): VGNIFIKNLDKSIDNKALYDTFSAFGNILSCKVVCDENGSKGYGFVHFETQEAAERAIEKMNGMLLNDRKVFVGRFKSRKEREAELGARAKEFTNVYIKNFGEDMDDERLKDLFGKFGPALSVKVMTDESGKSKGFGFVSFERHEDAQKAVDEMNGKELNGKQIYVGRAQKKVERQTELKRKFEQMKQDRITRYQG

B1: r(A)25 (ssRNA)
RNA: AAAAAAAAAAAAAAAAAAAAAAAAA
binding result [1]: binds

binding result (PABPC1 RRM23 (98-293)): binds
binding result (PABPC1 (1-372)): binds
B2: Paip2 (22-75) (domain or fragment, UniProt Q9BPZ3 22-75, looked up)
chain: GHSHEDDNPFAEYMWMENEEEFNRQIEEELWEEEFIERCFQEMLEEEEEHEWFI

stoichiometry N [2]: 2 Paip2 per PABPC1
stoichiometry N [3]: 1 Paip2 per PABPC1
B3: PABPC1-interacting protein 2 (Paip2), full-length recombinant (natural protein, UniProt Q9BPZ3 1-127, looked up)
chain: MKDPSRSSTSPSIINEDVIINGHSHEDDNPFAEYMWMENEEEFNRQIEEELWEEEFIERCFQEMLEEEEEHEWFIPARDLPQTMDQIQDQFNDLVISDGSSLEDLVVKSNLNPNAKEFVPGVKYGNI
